Key:
[1] = target: human FGFR3 (isoform and construct not stated) (human) (UniProt P22607); test: Scatchard analysis, radioiodinated antibody cell binding; UMUC-14 cells
[2] = target: human FGFR3 (isoform and construct not stated) (human) (UniProt P22607); test: Scatchard analysis, radioiodinated antibody cell binding; OPM2 cells
[3] = target: human FGFR3 (isoform and construct not stated) (human) (UniProt P22607); test: Scatchard analysis, radioiodinated antibody cell binding; KMS11 cells
[4] = target: human FGFR3 (isoform and construct not stated) (human) (UniProt P22607); test: Scatchard analysis, radioiodinated antibody cell binding; RT112 cells
[5] = target: human FGFR3 (isoform and construct not stated) (human) (UniProt P22607); test: cell-based or functional assay
[6] = target: T1, His-tagged IgD2-D3 of human FGFR3-IIIc (human, UniProt P22607 143-372); test: BIAcore SPR; antibody on CM5 chip, FGFR3-His protein injected
T1 construct: domain: IgD2-D3; also called FGFR3-IIIC-His protein; IIIc-His protein; not shown: His tag
T1 sequence: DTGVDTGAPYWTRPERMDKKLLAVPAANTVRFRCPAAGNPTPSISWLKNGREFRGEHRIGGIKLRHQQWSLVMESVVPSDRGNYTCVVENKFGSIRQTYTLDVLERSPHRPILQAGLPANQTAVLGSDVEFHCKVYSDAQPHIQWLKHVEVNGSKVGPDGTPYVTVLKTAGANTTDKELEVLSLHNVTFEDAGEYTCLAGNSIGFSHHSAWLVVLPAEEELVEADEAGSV

[7] = target: T2, His-tagged IgD2-D3 of human FGFR3-IIIb (human, UniProt P22607-2 143-374, limits assumed); test: as above
T2 construct: domain: IgD2-D3; also called FGFR3-IIIb-His protein; Human FGFR3 ECD IIIb; not shown: His tag
T2 sequence (looked up): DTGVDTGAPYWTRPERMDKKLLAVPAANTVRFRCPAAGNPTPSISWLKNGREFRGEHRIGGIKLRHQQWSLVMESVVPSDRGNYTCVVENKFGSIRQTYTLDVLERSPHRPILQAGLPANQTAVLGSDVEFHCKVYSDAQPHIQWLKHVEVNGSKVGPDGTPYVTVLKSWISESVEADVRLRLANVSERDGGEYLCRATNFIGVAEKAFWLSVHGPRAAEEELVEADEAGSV

[8] = target: T3, human FGFR3-IIIc ECD-human Fc chimeric protein (human, UniProt P22607 23-375); test: competition ELISA; FGFR3-IIIc-Fc captured, antibody titrated, then FGF9 and heparin; competitor FGF9
T3 construct: extracellular domain; Made in CHO cells, purified on protein A; also called FGFR3-Fc chimeric protein; not shown: human Fc
T3 sequence (looked up): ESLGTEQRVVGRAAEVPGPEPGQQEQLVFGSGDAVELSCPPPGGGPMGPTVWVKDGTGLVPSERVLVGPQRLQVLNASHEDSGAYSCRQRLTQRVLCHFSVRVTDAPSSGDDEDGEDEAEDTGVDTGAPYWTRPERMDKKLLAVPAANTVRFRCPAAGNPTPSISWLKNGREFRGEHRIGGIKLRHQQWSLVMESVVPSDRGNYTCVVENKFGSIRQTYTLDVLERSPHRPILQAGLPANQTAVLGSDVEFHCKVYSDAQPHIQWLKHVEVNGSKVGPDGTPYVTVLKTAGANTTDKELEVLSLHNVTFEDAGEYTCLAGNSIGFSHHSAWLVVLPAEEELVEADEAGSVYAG

[9] = target: T1, His-tagged IgD2-D3 of human FGFR3-IIIc; test: BIAcore SPR; R3 Ab on the chip, FGFR3-IIIc-His protein injected, 25 C
[10] = target: T3, human FGFR3-IIIc ECD-human Fc chimeric …; test: competition ELISA; FGFR3-IIIc-Fc captured, antibody titrated, then FGF1 and heparin; competitor FGF1

Molecule | increased inhibitory activity in the Ba/F3-FGFR3 viability assay (fold greater than parent clone 184.6) [5] | Kd [6] | Kd [7] | other results
R3Mab | – | – | – | Kd [1]: 340 pM; Kd [2]: 640 pM; Kd [3]: 350 pM; Kd [4]: 160 pM
anti-FGFR3 antibody clone 184.6.1 (antibody, V domains shown) VH: EVQLVESGGGLVQPGGSLRLSCAASGFTFTSTGISWVRQAPGKGLEWVGRIYPTNGSTNYADSVKGRFTISADTSKNTAYLQMNSLRAEDTAVYYCARARTYGIYDLYVDYTEYVMDYWGQGTLV VL: DIQMTQSPSSLSASVGDRVTITCRASQDVDTSLAWYQQKPGKAPKLLIYSASFLYSGVPSRFSGSGSGTDFTLTISSLQPEDFATYYCQQSTGHPQTFGQGTKVEIKR | 100 | 1440 pM | 264 pM | –
anti-FGFR3 antibody clone 184.6.58 (antibody, V domains shown) VH: EVQLVESGGGLVQPGGSLRLSCAASGFTFTSTGISWVRQAPGKGLEWVGRIYPTNGSTNYADSVKGRFTISADTSKNTAYLQMNSLRAEDTAVYYCARARTYGIYDLYVDYTEYVMDYWGQGTLV VL: DIQMTQSPSSLSASVGDRVTITCRASQDVDISLAWYQQKPGKAPKLLIYSASSLASGVPSRFSGSGSGTDFTLTISSLQPEDFATYYCQQGAGNPYTFGQGTKVEIKR | 100 | 880 pM | 190 pM | –
anti-FGFR3 antibody clone 184.6.62 (antibody, V domains shown) VH: EVQLVESGGGLVQPGGSLRLSCAASGFTFSTTGISWVRQAPGKGLEWVGRIYPLYGSTHYADSVKGRFTISADTSKNTAYLQMNSLRAEDTAVYYCARARTYGIYDLYVDYTEYVMDYWGQGTLV VL: DIQMTQSPSSLSASVGDRVTITCRASQDVSTAVAWYQQKPGKAPKLLIYSASFLYSGVPSRFSGSGSGTDFTLTISSLQPEDFATYYCQQTYTTSLTFGQGTKVEIKR | 100 | 2240 pM | 120 pM | –
anti-FGFR3 antibody clone 184.6 (antibody, V domains shown, The tie to the clone name is indirect) VH: EVQLVESGGGLVQPGGSLRLSCAASGFTFTSTGISWVRQAPGKGLEWVGRIYPTNGSTNYADSVKGRFTISADTSKNTAYLQMNSLRAEDTAVYYCARARTYGIYDLYVDYTEYVMDYWGQGTLV VL: DIQMTQSPSSLSASVGDRVTITCRASQDVSTAVAWYQQKPGKAPKLLIYSASFLYSGVPSRFSGSGSGTDFTLTISSLQPEDFATYYCQQSYTTPPTFGQGTKVEIKR | – | 110000 pM | 38000 pM | –
anti-FGFR3 antibody clone 184.6.1N54S (antibody, V domains shown) VH: EVQLVESGGGLVQPGGSLRLSCAASGFTFTSTGISWVRQAPGKGLEWVGRIYPTSGSTNYADSVKGRFTISADTSKNTAYLQMNSLRAEDTAVYYCARARTYGIYDLYVDYTEYVMDYWGQGTLV VL: DIQMTQSPSSLSASVGDRVTITCRASQDVDTSLAWYQQKPGKAPKLLIYSASFLYSGVPSRFSGSGSGTDFTLTISSLQPEDFATYYCQQSTGHPQTFGQGTKVEIKR | – | – | – | IC50 [8]: 1300 pM; Kd [9]: 3520 pM; koff [9]: 0.00032 s⁻¹; kon [9]: 91000 M⁻¹ s⁻¹; IC50 [10]: 1700 pM
